Reference: patent US20160002326A1 (AbbVie / Abbott, published 2016)

Assays:
mouse IL-17 = target: T1, mouse IL-17 (mouse, UniProt Q62386 26-158, limits assumed); assay: assay not stated (Table 5, 'Source And Binding Information')
T1 construct: also called mouse IL-17A; rodent IL-17 (mouse)
T1 sequence (looked up): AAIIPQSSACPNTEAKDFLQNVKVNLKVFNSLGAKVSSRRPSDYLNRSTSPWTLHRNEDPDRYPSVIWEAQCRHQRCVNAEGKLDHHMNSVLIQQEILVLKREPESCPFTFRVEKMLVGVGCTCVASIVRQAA

mouse TNF = target: T2, mouse TNF (mouse, UniProt P06804 80-235); assay: as above
T2 construct: also called murine TNF; rodent TNF (mouse)
T2 sequence (looked up): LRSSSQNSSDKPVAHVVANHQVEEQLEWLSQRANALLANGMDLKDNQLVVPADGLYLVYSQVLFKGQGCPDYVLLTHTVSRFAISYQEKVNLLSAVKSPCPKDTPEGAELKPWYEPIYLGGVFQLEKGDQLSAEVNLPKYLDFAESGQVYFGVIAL

B1: 8C11/10F7M11 anti-TNF/IL-17 DVD-Ig protein (bispecific antibody, human IgG1, kappa, L234A L235A)
heavy: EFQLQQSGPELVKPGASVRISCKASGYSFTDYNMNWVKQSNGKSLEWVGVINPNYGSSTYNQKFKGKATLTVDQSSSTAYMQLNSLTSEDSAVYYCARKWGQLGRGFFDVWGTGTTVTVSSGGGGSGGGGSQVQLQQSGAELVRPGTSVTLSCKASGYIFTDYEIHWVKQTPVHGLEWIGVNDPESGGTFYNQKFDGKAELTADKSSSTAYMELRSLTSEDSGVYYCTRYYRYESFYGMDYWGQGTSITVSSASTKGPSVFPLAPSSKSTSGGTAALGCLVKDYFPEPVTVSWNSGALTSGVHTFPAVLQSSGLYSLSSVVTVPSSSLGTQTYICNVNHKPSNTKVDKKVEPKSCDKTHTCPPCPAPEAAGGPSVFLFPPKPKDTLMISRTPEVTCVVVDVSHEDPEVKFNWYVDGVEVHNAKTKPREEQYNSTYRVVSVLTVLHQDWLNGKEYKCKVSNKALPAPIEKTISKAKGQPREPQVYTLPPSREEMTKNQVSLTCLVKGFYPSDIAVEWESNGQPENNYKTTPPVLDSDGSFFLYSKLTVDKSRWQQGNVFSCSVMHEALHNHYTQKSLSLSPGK
light: QIVLSQSPAILSASPGEKVTMTCRASSSVSYMHWFQQKPGSSPKPWIYATSNLASGVPARFSGSGSGTSYSLTISRVEAEDAATYYCQQWSSSPLTFGAGTKLELKRGGSGGGGSGQIVLTQSPAIMSASPGEKVTMTCSASSSISYIYWFQQKPGTSPKRWIYATFELASGVPARFSGSGSGTSYSLTISSMEAEDAATYYCHQRSSYPWTFGGGSKLEIKRTVAAPSVFIFPPSDEQLKSGTASVVCLLNNFYPREAKVQWKVDNALQSGNSQESVTEQDSKDSTYSLSSTLTLSKADYEKHKVYACEVTHQGLSSPVTKSFNRGEC
notes: also called 8C11/10F7 DVD-Ig protein; anti-mouse TNF/IL-17 DVD-Ig
Work on B1 yielded an IC50 (mouse IL-17) of 0.13 nM and an IC50 (mouse TNF) of 2 nM.

B2: anti-murine TNF antibody 8C11 (antibody, mouse IgG2c, V domains shown)
VH: EFQLQQSGPELVKPGASVRISCKASGYSFTDYNMNWVKQSNGKSLEWVGVINPNYGSSTYNQKFKGKATLTVDQSSSTAYMQLNSLTSEDSAVYYCARKWGQLGRGFFDVWGTGTTVTVSS
VL: QIVLSQSPAILSASPGEKVTMTCRASSSVSYMHWFQQKPGSSPKPWIYATSNLASGVPARFSGSGSGTSYSLTISRVEAEDAATYYCQQWSSSPLTFGAGTKLELKR
notes: also called 8C11 anti-TNF Ab; Anti-TNF
B2 was tested, and the IC50 (mouse TNF) was 2 nM.
